In patent US7888090B2, “Mutants of O6-alkylguanine-DNA alkyltransferase” (Ecole Polytechnique Federale de Lausanne, priority 2004, dated 2011):

Tests used:
[1] = Stability after reaction with BG-FL; assay type: physicochemical
Method: Stability before reaction is determined for the mutant AGT or for a mutant AGT fusion protein by incubating purified samples in buffered aqueous solution for up to two weeks at 4° C. and up to six months at −20° C. At several time points, aliquots are taken and concentration of reactive AGT is estimated as described by Juillerat et al., Chem Biol 10:313-317, 2003. Stability for wild type AGT and the AGT mutant after reaction with a labelled substrate and after subsequent separation from unreacted substrate is determined by quantifying the concentration of the label in the soluble fraction over up to two weeks at 4° C. and up to three months at −20° C.
Stability after reaction: The vector pBAD/H is A (Invitrogen) is modified by cloning synthetic oligonucleotides (SEQ ID NO:29 and SEQ ID NO:30) between the NcoI and HindIII sites to include a 12×His-tag and SbfI and AscI cloning sites. The gene of AGTM is amplified with primers SEQ ID NO:31 and SEQ ID NO:32 and cloned between the SbfI/AscI sites into this vector. Wild type AGT and mutant AGT (Lys125Ala, Ala127Thr, Arg128Ala, Asn157Gly, Ser159Glu) are amplified with primers SEQ ID NO:31 and SEQ ID NO:33 and cloned into this vector. Protein expression is carried out in E. coli strain Top 10. An exponentially growing culture is induced with 0.2% arabinose, and the expression is carried out for 16 hours at 28° C. The cells are lysed by adding buffer to 10 ml/g containing 0.5 M NaCl, 80 mM imidazole, 1% Triton, 250 µM PMSF, 1 mM […]-mercaptoethanol, 5 mg/ml lysozyme, 20 µg/ml DNase and stirring for 45 min. […]
The AGT proteins at 10 µM) are quantitatively reacted with fluorescein-modified O^6-benzyl-guanine (substance 5 of Juillerat et al, Chem Biol 10:313-317, 2003, BG-FL, 20 µM) and purified over a size exclusion column (Econopac 10 DG, Bio-Rad) and incubated for 7 days. […] The fluorescence of the supernatant is measured with a Victor2 fluorescence plate reader (Perkin Elmer, excitation/emission at 485/535 nm).

CHO cells = test: Selective labelling in cells after CPTG pre-incubation; assay type: cell-based; settings: 5 µM CPTG 10 min, then 5 µM fluorescent substance 4 20 min
Source text: In a further experiment, the mutant AGTM as described in Example 6 is amplified with the primers SEQ ID NO:34 and SEQ ID NO:36 and cloned between the NheI and BgIII sites of the vector pEGFP-Nuc. The […]-galactosidase gene is amplified with the primers SEQ ID NO:37 and SEQ ID NO:38 and subcloned into this vector via BgIII/BamHI to result in a vector with an AGTM-[…]-Gal fusion gene. The hAGT gene is amplified by the principle described under Example 1 with the primers SEQ ID NO:39, SEQ ID NO:40, SEQ ID NO:34, and SEQ ID NO:35 and cloned via NheI/BgIII into pEGFP-Nuc to result in an AGT-NLS3 fusion gene coding for the mutation Gly160Trp. After transient expression of both AGT mutants in parallel, the cells are incubated with 5 µM CPTG for 10 min and subsequently with 5 µM of substance 4 of Juillerat et al., Chem Biol 10:313-317, 2003, for 20 min. The cells are washed and imaged as described under Example 1.

B1: AGTM: AGT mutant Cys62Ala, Gln115Ser, Gln116His, Lys125Ala, Ala127Thr, Arg128Ala, Gly131Lys, Gly132Thr, Met134Leu, Arg135Ser, Cys150Asn, Ser151Ile, Ser152Asn, Asn157Gly, Ser159Glu, truncated after … (protein, UniProt P16455 1-207, looked up, variant C62A Q115S Q116H K125A A127T R128A G131K G132T M134L R135S C150N S151I S152N N157G S159E del183-207)
Methylated-DNA--protein-cystei …: MDKDCEMKRTTLDSPLGKLELSGCEQGLHEIKLLGKGTSAADAVEVPAPAAVLGGPEPLMQATAWLNAYFHQPEAIEEFPVPALHHPVFQQESFTRQVLWKLLKVVKFGEVISYSHLAALAGNPAATAAVKTALSGNPVPILIPCHRVVNINGAVGGYEGGLAVKEWLLAHEGHRLGKPGLG
modifications: His tag
- time labeled protein remains stable in solution [1]: over 7 days
- reaction with CPTG inside cells (CHO cells): does not react with CPTG
